According to patent US20210171596A1 (published 2021):

T1: IL10R1-Fc (human, UniProt Q13651 22-235)
T1 chain: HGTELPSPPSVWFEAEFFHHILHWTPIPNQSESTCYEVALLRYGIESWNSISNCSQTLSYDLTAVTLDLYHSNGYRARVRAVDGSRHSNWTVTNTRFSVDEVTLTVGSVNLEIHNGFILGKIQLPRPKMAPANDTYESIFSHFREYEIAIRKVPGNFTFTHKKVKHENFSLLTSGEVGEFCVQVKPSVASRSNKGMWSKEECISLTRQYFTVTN


Target: T1, IL10R1-Fc
Assay: BLI

Binder	Kd [nM]
XENP14246 (WT) (protein) chain 1: EPKSSDKTHTCPPCPAPPVAGPSVFLFPPKPKDTLMISRTPEVTCVVVDVKHEDPEVKFNWYVDGVEVHNAKTKPREEEYNSTYRVVSVLTVLHQDWLNGKEYKCKVSNKALPAPIEKTISKAKGQPREPQVYTLPPSREEMTKNQVSLTCDVSGFYPSDIAVEWESDGQPENNYKTTPPVLDSDGSFFLYSKLTVDKSRWEQGDVFSCSVMHEALHNHYTQKSLSLSPGK chain 2: SPGQGTQSENSCTHFPGNLPNMLRDLRDAFSRVKTFFQMKDQLDNLLLKESLLEDFKGYLGCQALSEMIQFYLEEVMPQAENQDPDIKAHVNSLGENLKTLRLRLRRCHRFLPCENGGGSGGKSKAVEQVKNAFNKLQEKGIYKAMSEFDIFINYIEAYMTMKIRNEPKSSDKTHTCPPCPAPPVAGPSVFLFPPKPKDTLMISRTPEVTCVVVDVKHEDPEVKFNWYVDGVEVHNAKTKPREEQYNSTYRVVSVLTVLHQDWLNGKEYKCKVSNKALPAPIEKTISKAKGQPREPQVYTLPPSREQMTKNQVKLTCLVKGFYPSDIAVEWESNGQPENNYKTTPPVLDSDGSFFLYSKLTVDKSRWQQGNVFSCSVMHEALHNHYTQKSLSLSPGK	5.05
XENP25758 (Q42E) (protein) chain 1: EPKSSDKTHTCPPCPAPPVAGPSVFLFPPKPKDTLMISRTPEVTCVVVDVKHEDPEVKFNWYVDGVEVHNAKTKPREEEYNSTYRVVSVLTVLHQDWLNGKEYKCKVSNKALPAPIEKTISKAKGQPREPQVYTLPPSREEMTKNQVSLTCDVSGFYPSDIAVEWESDGQPENNYKTTPPVLDSDGSFFLYSKLTVDKSRWEQGDVFSCSVMHEALHNHYTQKSLSLSPGK chain 2: SPGQGTQSENSCTHFPGNLPNMLRDLRDAFSRVKTFFQMKDELDNLLLKESLLEDFKGYLGCQALSEMIQFYLEEVMPQAENQDPDIKAHVNSLGENLKTLRLRLRRCHRFLPCENGGGSGGKSKAVEQVKNAFNKLQEKGIYKAMSEFDIFINYIEAYMTMKIRNEPKSSDKTHTCPPCPAPPVAGPSVFLFPPKPKDTLMISRTPEVTCVVVDVKHEDPEVKFNWYVDGVEVHNAKTKPREEQYNSTYRVVSVLTVLHQDWLNGKEYKCKVSNKALPAPIEKTISKAKGQPREPQVYTLPPSREQMTKNQVKLTCLVKGFYPSDIAVEWESNGQPENNYKTTPPVLDSDGSFFLYSKLTVDKSRWQQGNVFSCSVMHEALHNHYTQKSLSLSPGK	7.3
XENP25763 (I87A) (protein) chain 1: EPKSSDKTHTCPPCPAPPVAGPSVFLFPPKPKDTLMISRTPEVTCVVVDVKHEDPEVKFNWYVDGVEVHNAKTKPREEEYNSTYRVVSVLTVLHQDWLNGKEYKCKVSNKALPAPIEKTISKAKGQPREPQVYTLPPSREEMTKNQVSLTCDVSGFYPSDIAVEWESDGQPENNYKTTPPVLDSDGSFFLYSKLTVDKSRWEQGDVFSCSVMHEALHNHYTQKSLSLSPGK chain 2: SPGQGTQSENSCTHFPGNLPNMLRDLRDAFSRVKTFFQMKDQLDNLLLKESLLEDFKGYLGCQALSEMIQFYLEEVMPQAENQDPDAKAHVNSLGENLKTLRLRLRRCHRFLPCENGGGSGGKSKAVEQVKNAFNKLQEKGIYKAMSEFDIFINYIEAYMTMKIRNEPKSSDKTHTCPPCPAPPVAGPSVFLFPPKPKDTLMISRTPEVTCVVVDVKHEDPEVKFNWYVDGVEVHNAKTKPREEQYNSTYRVVSVLTVLHQDWLNGKEYKCKVSNKALPAPIEKTISKAKGQPREPQVYTLPPSREQMTKNQVKLTCLVKGFYPSDIAVEWESNGQPENNYKTTPPVLDSDGSFFLYSKLTVDKSRWQQGNVFSCSVMHEALHNHYTQKSLSLSPGK	14.4
XENP25759 (L43V) (protein) chain 1: EPKSSDKTHTCPPCPAPPVAGPSVFLFPPKPKDTLMISRTPEVTCVVVDVKHEDPEVKFNWYVDGVEVHNAKTKPREEEYNSTYRVVSVLTVLHQDWLNGKEYKCKVSNKALPAPIEKTISKAKGQPREPQVYTLPPSREEMTKNQVSLTCDVSGFYPSDIAVEWESDGQPENNYKTTPPVLDSDGSFFLYSKLTVDKSRWEQGDVFSCSVMHEALHNHYTQKSLSLSPGK chain 2: SPGQGTQSENSCTHFPGNLPNMLRDLRDAFSRVKTFFQMKDQVDNLLLKESLLEDFKGYLGCQALSEMIQFYLEEVMPQAENQDPDIKAHVNSLGENLKTLRLRLRRCHRFLPCENGGGSGGKSKAVEQVKNAFNKLQEKGIYKAMSEFDIFINYIEAYMTMKIRNEPKSSDKTHTCPPCPAPPVAGPSVFLFPPKPKDTLMISRTPEVTCVVVDVKHEDPEVKFNWYVDGVEVHNAKTKPREEQYNSTYRVVSVLTVLHQDWLNGKEYKCKVSNKALPAPIEKTISKAKGQPREPQVYTLPPSREQMTKNQVKLTCLVKGFYPSDIAVEWESNGQPENNYKTTPPVLDSDGSFFLYSKLTVDKSRWQQGNVFSCSVMHEALHNHYTQKSLSLSPGK	16.4
XENP25756 (M39T) (protein) chain 1: EPKSSDKTHTCPPCPAPPVAGPSVFLFPPKPKDTLMISRTPEVTCVVVDVKHEDPEVKFNWYVDGVEVHNAKTKPREEEYNSTYRVVSVLTVLHQDWLNGKEYKCKVSNKALPAPIEKTISKAKGQPREPQVYTLPPSREEMTKNQVSLTCDVSGFYPSDIAVEWESDGQPENNYKTTPPVLDSDGSFFLYSKLTVDKSRWEQGDVFSCSVMHEALHNHYTQKSLSLSPGK chain 2: SPGQGTQSENSCTHFPGNLPNMLRDLRDAFSRVKTFFQTKDQLDNLLLKESLLEDFKGYLGCQALSEMIQFYLEEVMPQAENQDPDIKAHVNSLGENLKTLRLRLRRCHRFLPCENGGGSGGKSKAVEQVKNAFNKLQEKGIYKAMSEFDIFINYIEAYMTMKIRNEPKSSDKTHTCPPCPAPPVAGPSVFLFPPKPKDTLMISRTPEVTCVVVDVKHEDPEVKFNWYVDGVEVHNAKTKPREEQYNSTYRVVSVLTVLHQDWLNGKEYKCKVSNKALPAPIEKTISKAKGQPREPQVYTLPPSREQMTKNQVKLTCLVKGFYPSDIAVEWESNGQPENNYKTTPPVLDSDGSFFLYSKLTVDKSRWQQGNVFSCSVMHEALHNHYTQKSLSLSPGK	4.76
XENP25761 (N45D) (protein) chain 1: EPKSSDKTHTCPPCPAPPVAGPSVFLFPPKPKDTLMISRTPEVTCVVVDVKHEDPEVKFNWYVDGVEVHNAKTKPREEEYNSTYRVVSVLTVLHQDWLNGKEYKCKVSNKALPAPIEKTISKAKGQPREPQVYTLPPSREEMTKNQVSLTCDVSGFYPSDIAVEWESDGQPENNYKTTPPVLDSDGSFFLYSKLTVDKSRWEQGDVFSCSVMHEALHNHYTQKSLSLSPGK chain 2: SPGQGTQSENSCTHFPGNLPNMLRDLRDAFSRVKTFFQMKDQLDDLLLKESLLEDFKGYLGCQALSEMIQFYLEEVMPQAENQDPDIKAHVNSLGENLKTLRLRLRRCHRFLPCENGGGSGGKSKAVEQVKNAFNKLQEKGIYKAMSEFDIFINYIEAYMTMKIRNEPKSSDKTHTCPPCPAPPVAGPSVFLFPPKPKDTLMISRTPEVTCVVVDVKHEDPEVKFNWYVDGVEVHNAKTKPREEQYNSTYRVVSVLTVLHQDWLNGKEYKCKVSNKALPAPIEKTISKAKGQPREPQVYTLPPSREQMTKNQVKLTCLVKGFYPSDIAVEWESNGQPENNYKTTPPVLDSDGSFFLYSKLTVDKSRWQQGNVFSCSVMHEALHNHYTQKSLSLSPGK	10.6

The next lines start with the values.

Kd [nM]	Binder
1.23	XENP25760 (D44N) (protein) chain 1: EPKSSDKTHTCPPCPAPPVAGPSVFLFPPKPKDTLMISRTPEVTCVVVDVKHEDPEVKFNWYVDGVEVHNAKTKPREEEYNSTYRVVSVLTVLHQDWLNGKEYKCKVSNKALPAPIEKTISKAKGQPREPQVYTLPPSREEMTKNQVSLTCDVSGFYPSDIAVEWESDGQPENNYKTTPPVLDSDGSFFLYSKLTVDKSRWEQGDVFSCSVMHEALHNHYTQKSLSLSPGK chain 2: SPGQGTQSENSCTHFPGNLPNMLRDLRDAFSRVKTFFQMKDQLNNLLLKESLLEDFKGYLGCQALSEMIQFYLEEVMPQAENQDPDIKAHVNSLGENLKTLRLRLRRCHRFLPCENGGGSGGKSKAVEQVKNAFNKLQEKGIYKAMSEFDIFINYIEAYMTMKIRNEPKSSDKTHTCPPCPAPPVAGPSVFLFPPKPKDTLMISRTPEVTCVVVDVKHEDPEVKFNWYVDGVEVHNAKTKPREEQYNSTYRVVSVLTVLHQDWLNGKEYKCKVSNKALPAPIEKTISKAKGQPREPQVYTLPPSREQMTKNQVKLTCLVKGFYPSDIAVEWESNGQPENNYKTTPPVLDSDGSFFLYSKLTVDKSRWQQGNVFSCSVMHEALHNHYTQKSLSLSPGK
3.86	XENP25754 (D28N) (protein) chain 1: EPKSSDKTHTCPPCPAPPVAGPSVFLFPPKPKDTLMISRTPEVTCVVVDVKHEDPEVKFNWYVDGVEVHNAKTKPREEEYNSTYRVVSVLTVLHQDWLNGKEYKCKVSNKALPAPIEKTISKAKGQPREPQVYTLPPSREEMTKNQVSLTCDVSGFYPSDIAVEWESDGQPENNYKTTPPVLDSDGSFFLYSKLTVDKSRWEQGDVFSCSVMHEALHNHYTQKSLSLSPGK chain 2: SPGQGTQSENSCTHFPGNLPNMLRDLRNAFSRVKTFFQMKDQLDNLLLKESLLEDFKGYLGCQALSEMIQFYLEEVMPQAENQDPDIKAHVNSLGENLKTLRLRLRRCHRFLPCENGGGSGGKSKAVEQVKNAFNKLQEKGIYKAMSEFDIFINYIEAYMTMKIRNEPKSSDKTHTCPPCPAPPVAGPSVFLFPPKPKDTLMISRTPEVTCVVVDVKHEDPEVKFNWYVDGVEVHNAKTKPREEQYNSTYRVVSVLTVLHQDWLNGKEYKCKVSNKALPAPIEKTISKAKGQPREPQVYTLPPSREQMTKNQVKLTCLVKGFYPSDIAVEWESNGQPENNYKTTPPVLDSDGSFFLYSKLTVDKSRWQQGNVFSCSVMHEALHNHYTQKSLSLSPGK
8.14	XENP25753 (N21D) (protein) chain 1: EPKSSDKTHTCPPCPAPPVAGPSVFLFPPKPKDTLMISRTPEVTCVVVDVKHEDPEVKFNWYVDGVEVHNAKTKPREEEYNSTYRVVSVLTVLHQDWLNGKEYKCKVSNKALPAPIEKTISKAKGQPREPQVYTLPPSREEMTKNQVSLTCDVSGFYPSDIAVEWESDGQPENNYKTTPPVLDSDGSFFLYSKLTVDKSRWEQGDVFSCSVMHEALHNHYTQKSLSLSPGK chain 2: SPGQGTQSENSCTHFPGNLPDMLRDLRDAFSRVKTFFQMKDQLDNLLLKESLLEDFKGYLGCQALSEMIQFYLEEVMPQAENQDPDIKAHVNSLGENLKTLRLRLRRCHRFLPCENGGGSGGKSKAVEQVKNAFNKLQEKGIYKAMSEFDIFINYIEAYMTMKIRNEPKSSDKTHTCPPCPAPPVAGPSVFLFPPKPKDTLMISRTPEVTCVVVDVKHEDPEVKFNWYVDGVEVHNAKTKPREEQYNSTYRVVSVLTVLHQDWLNGKEYKCKVSNKALPAPIEKTISKAKGQPREPQVYTLPPSREQMTKNQVKLTCLVKGFYPSDIAVEWESNGQPENNYKTTPPVLDSDGSFFLYSKLTVDKSRWQQGNVFSCSVMHEALHNHYTQKSLSLSPGK
